Experiments:
[1] = molecular target: cytochrome c endogenous in Vero cells (Chlorocebus (African green monkey), …, UniProt G4XXN2); assay: immunostaining of cells or tissue
[2] = molecular target: T1, cytochrome c endogenous in mouse melanoma B16-F1 cells (Mus musculus, UniProt P62897); assay: immunostaining of cells or tissue
[3] = molecular target: cytochrome c endogenous in bovine aortic endothelial cells (Bos taurus, UniProt P62894); assay: immunostaining of cells or tissue
[4] = molecular target: cytochrome c endogenous in human cells (HeLa, IMR-90) (Homo sapiens, UniProt P99999); assay: immunostaining of cells or tissue
cytochrome c endogenous in human cells (HeLa, IMR-90), sequence (P99999 whole entry): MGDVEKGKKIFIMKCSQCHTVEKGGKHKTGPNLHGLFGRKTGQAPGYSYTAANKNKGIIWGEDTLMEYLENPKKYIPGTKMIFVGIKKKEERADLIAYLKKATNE

[5] = molecular target: T1, cytochrome c endogenous in mouse …; assay: flow cytometry on cells
[6] = molecular target: 1–65 CNBr-cleaved peptide of cytochrome c (Equus caballus (assumed), UniProt P00004); assay: ELISA
1–65 CNBr-cleaved peptide of cytochrome c, sequence (P00004 2-66): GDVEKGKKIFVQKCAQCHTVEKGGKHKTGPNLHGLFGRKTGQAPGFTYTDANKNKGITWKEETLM

Measured: binding result

T1 sequence (P62897 whole entry): as the sequence (P99999 whole entry) above, with I12V, M13Q, S16A, P45A, Y47F, A51D, I59T, V84A, E90G counted along it
cytochrome c endogenous in bovine aortic endothelial cells, sequence (P62894 whole entry): as the sequence (P99999 whole entry) above, with I12V, M13Q, S16A, Y47F, A51D, I59T, D63E, V84A, E90G, A93E counted along it

B1: monoclonal antibody 1D3 (original, hybridoma-derived) (antibody, V domains shown)
VH: QVQLQQPGAELVKPGASVKMSCKASGYTFTSNNMHWVKQTPGQGLEWIGGLYPGNGDTSYNQKFKGKATLTADKSSSTAYMQLSSLTSGDSAVYYCARGIRDFFAMDYWGQGTSVTVSS
VL: DIQMTQSPASQSASLGESVTITCLASQTIGTWLAWYQQKPGKSPQLLIYAATSLADGVPSRFSGSGSGTKFSFKISSLQAEDFVSYYCQQLYSTPLTFGAGTKLELK
binds: [1] | [2] | [3] | [4]

B2: recombinant monoclonal antibody R1D3 (antibody, V domains shown)
VH: B1 VH
VL: B1 VL
binds: [5] | [6] | [1]

Reference: PMC9704708 (Proceedings of the National Academy of Sciences of the …, 2022)
